According to publication PMC4493278 (Cell Research, 2015):
Several values for one entry are separate records, joined by “and”; a condition that tells them apart may be missing. Equal entries are not always repeated. Where two headings read alike, the source gives them in different places. Values belong to the molecule of their own block, whether it stands above or below them.

Columns and labels:
[1] = biological target: Moesin FERM domain (UniProt P26038)
[2] = biological target: T1, Merlin FERM domain (Merlin-FERM, residues 1-320) (human, UniProt P35240 1-320)
T1 sequence (looked up): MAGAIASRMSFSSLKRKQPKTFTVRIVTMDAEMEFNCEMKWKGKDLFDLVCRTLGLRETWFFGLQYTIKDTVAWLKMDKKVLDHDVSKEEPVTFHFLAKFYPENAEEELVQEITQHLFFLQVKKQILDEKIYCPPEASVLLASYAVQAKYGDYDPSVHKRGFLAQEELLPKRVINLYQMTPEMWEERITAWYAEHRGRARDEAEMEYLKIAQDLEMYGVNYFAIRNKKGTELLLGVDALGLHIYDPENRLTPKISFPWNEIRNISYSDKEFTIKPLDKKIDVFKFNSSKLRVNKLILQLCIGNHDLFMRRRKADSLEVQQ

[3] = biological target: T1, Merlin FERM domain (Merlin-FERM, …); test: crystal structure
[4] = biological target: T1, Merlin FERM domain (Merlin-FERM, …); test: ITC
[5] = biological target: T2, S518D-Merlin (human, UniProt P35240 20-595, S518D); test: ITC
T2 sequence (looked up): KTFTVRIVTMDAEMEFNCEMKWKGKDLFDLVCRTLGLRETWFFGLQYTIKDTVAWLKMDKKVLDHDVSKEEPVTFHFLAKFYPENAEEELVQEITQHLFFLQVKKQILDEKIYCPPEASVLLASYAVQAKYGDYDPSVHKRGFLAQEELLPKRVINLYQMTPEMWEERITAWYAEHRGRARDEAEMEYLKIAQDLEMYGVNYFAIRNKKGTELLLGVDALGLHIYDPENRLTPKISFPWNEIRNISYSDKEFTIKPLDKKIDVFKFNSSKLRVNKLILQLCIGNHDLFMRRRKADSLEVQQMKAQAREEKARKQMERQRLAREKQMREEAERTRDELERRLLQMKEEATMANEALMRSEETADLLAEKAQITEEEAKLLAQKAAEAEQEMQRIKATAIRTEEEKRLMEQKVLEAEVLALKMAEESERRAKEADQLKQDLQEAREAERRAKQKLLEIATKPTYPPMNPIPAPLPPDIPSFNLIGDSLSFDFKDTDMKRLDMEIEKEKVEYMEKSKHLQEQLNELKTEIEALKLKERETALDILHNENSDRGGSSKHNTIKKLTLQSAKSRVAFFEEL

[6] = biological target: T3, S518A-Merlin (human, UniProt P35240 20-595, S518A); test: pull-down
T3 sequence (looked up): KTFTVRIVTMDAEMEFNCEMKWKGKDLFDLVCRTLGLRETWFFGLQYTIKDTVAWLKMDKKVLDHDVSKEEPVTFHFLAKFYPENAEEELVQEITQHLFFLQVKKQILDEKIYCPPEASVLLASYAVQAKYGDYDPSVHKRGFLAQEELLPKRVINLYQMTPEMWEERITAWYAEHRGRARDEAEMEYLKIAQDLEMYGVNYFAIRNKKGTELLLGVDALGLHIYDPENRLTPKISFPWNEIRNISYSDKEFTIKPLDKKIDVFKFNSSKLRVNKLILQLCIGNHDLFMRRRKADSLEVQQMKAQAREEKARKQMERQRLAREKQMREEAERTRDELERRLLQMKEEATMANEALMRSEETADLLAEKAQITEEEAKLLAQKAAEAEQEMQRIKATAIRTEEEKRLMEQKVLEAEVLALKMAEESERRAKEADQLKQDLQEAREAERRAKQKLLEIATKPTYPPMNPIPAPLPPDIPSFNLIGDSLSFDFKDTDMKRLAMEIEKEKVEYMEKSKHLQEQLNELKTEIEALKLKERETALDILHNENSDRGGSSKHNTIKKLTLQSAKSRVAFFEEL

[7] = biological target: entire C-terminal half of Merlin (human); test: SEC

Chain of Moesin FERM domain (P26038 2-295): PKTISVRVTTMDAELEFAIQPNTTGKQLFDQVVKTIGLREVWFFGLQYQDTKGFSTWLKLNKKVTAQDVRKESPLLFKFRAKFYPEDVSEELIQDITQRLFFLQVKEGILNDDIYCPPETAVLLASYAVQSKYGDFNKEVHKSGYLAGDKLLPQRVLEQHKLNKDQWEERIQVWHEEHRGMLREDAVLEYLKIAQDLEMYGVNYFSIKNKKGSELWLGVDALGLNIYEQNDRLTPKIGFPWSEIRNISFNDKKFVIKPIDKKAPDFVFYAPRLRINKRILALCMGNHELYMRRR

Molecule: Moesin tail domain (domain or fragment)
Kd [1]: 16 nM

B1: Merlin-CTD-S518D (domain or fragment, human, UniProt P35240 507-595, looked up)
chain: FDFKDTDMKRLDMEIEKEKVEYMEKSKHLQEQLNELKTEIEALKLKERETALDILHNENSDRGGSSKHNTIKKLTLQSAKSRVAFFEEL
Kd [2]: ~4000 nM

B2: Merlin C-terminal tail domain (Merlin-CTD, residues 507-595) (domain or fragment, human, UniProt P35240 507-595, looked up)
chain: FDFKDTDMKRLSMEIEKEKVEYMEKSKHLQEQLNELKTEIEALKLKERETALDILHNENSDRGGSSKHNTIKKLTLQSAKSRVAFFEEL
Kd [2]: ~3000 nM and ~4000 nM

B3: Merlin-CTD bearing S518D/A585W substitutions (domain or fragment, human, UniProt P35240 507-595, looked up)
chain: FDFKDTDMKRLDMEIEKEKVEYMEKSKHLQEQLNELKTEIEALKLKERETALDILHNENSDRGGSSKHNTIKKLTLQSWKSRVAFFEEL
binding result [3]: binds

B4: EBP50 C-terminal tail (EBP50-CT, residues 320-358) (domain or fragment, human, UniProt O14745 320-358, looked up)
chain: ILDFNISLAMAKERAHQKRSSKRAPQMDWSKKNELFSNL
Kd [4]: ~80 nM
binding result [5]: binds

B8: N-terminus of Lats1 (Lats1-NT, residues 1-153) (domain or fragment, mouse, UniProt Q8BYR2 1-153, looked up)
chain: MKRGEKPEGYRQMRPKTFPASNYPGSSRQMLQEIRESLRNLSKPSDASKAEHNLNKMSTEDPRQVRNPPKFGTHHKALQEIRNSLLPFANETSSSRSPSEVNPQMFQDLQAAGFDEDMVIQALQKTNNRSIEAAVEFISKMSYQDPRREQMSA
Kd [4]: ~1400 nM

Next, values leading:

binding result [3]: binds
B5: Lats1 FERM-binding domain (Lats1-FBD, residues 69-100) (domain or fragment, mouse, UniProt Q8BYR2 69-100, looked up)
chain: PKFGTHHKALQEIRNSLLPFANETSSSRSPSE

binding result [6]: binds
B6: GST-tagged Lats1-FBD (domain or fragment, mouse, UniProt Q8BYR2 69-100, looked up)
chain: PKFGTHHKALQEIRNSLLPFANETSSSRSPSE

binding result [3]: binds
B7: Lats2 FERM-binding domain (Lats2-FBD, residues 68-99) (domain or fragment, human, UniProt Q9NRM7 68-99, looked up)
chain: PKFGPYQKALREIRYSLLPFANESGTSAAAEV

stoichiometry N [7]: 1
B9: elongated α-helix-rich region of AMOT (residues 404-728 of AMOT-p130) (domain or fragment)
chain: ADPFAMVSRAQQMVEILSDENRNLRQELDGCYEKVARLQKVETEIQRVSEAYENLVKSSSKREALEKAMRNKLEGEIRRMHDFNRDLRDRLETANKQLAEKEYEGSEDTRKTISQLFAKHKENQREKEKLEAELATARSTNEDQRRHIEIRDQALSNAQAKVVKLEEELKKKQVYVDKVEKMQQALVQLQAACEKREQLEHRLRTRLERELESLRIQQRQGNSQPTNASEYNAAALMELLREKEERILALEADMTKWEQKYLEENVMRHFALDAAATVAAQRDTTVISHSPNTSYDTALEARIQKEEEEILMANKRCLDMEGRIK
